Experimental data from doi:10.1101/2025.07.06.663161 (bioRxiv, 2025).

Target: the molecule itself
Assay: atomic force microscopy

B1: Recombinant wild-type Cdc19, Strep-tagged (SUMO tag cleaved off) (natural protein)
chain: MSRLERLTSLNVVAGSDLRRTSIIGTIGPKTNNPETLVALRKAGLNIVRMNFSHGSYEYHKSVIDNARKSEELYPGRPLAIALDTKGPEIRTGTTTNDVDYPIPPNHEMIFTTDDKYAKACDDKIMYVDYKNITKVISAGRIIYVDDGVLSFQVLEVVDDKTLKVKALNAGKICSHKGVNLPGTDVDLPALSEKDKEDLRFGVKNGVHMVFASFIRTANDVLTIREVLGEQGKDVKIIVKIENQQGVNNFDEILKVTDGVMVARGDLGIEIPAPEVLAVQKKLIAKSNLAGKPVICATQMLESMTYNPRPTRAEVSDVGNAILDGADCVMLSGETAKGNYPINAVTTMAETAVIAEQAIAYLPNYDDMRNCTPKPTSTTETVAASAVAAVFEQKAKAIIVLSTSGTTPRLVSKYRPNCPIILVTRCPRAARFSHLYRGVFPFVFEKEPVSDWTDDVEARINFGIEKAKEFGILKKGDTYVSIQGFKAGAGHSNTLQVSTV
binding result: binds

B2: Recombinant phosphomimicking Cdc19-3E (S56E, S70E, S175E), Strep-tagged (SUMO tag cleaved off) (natural protein)
chain: MSRLERLTSLNVVAGSDLRRTSIIGTIGPKTNNPETLVALRKAGLNIVRMNFSHGEYEYHKSVIDNARKEEELYPGRPLAIALDTKGPEIRTGTTTNDVDYPIPPNHEMIFTTDDKYAKACDDKIMYVDYKNITKVISAGRIIYVDDGVLSFQVLEVVDDKTLKVKALNAGKICEHKGVNLPGTDVDLPALSEKDKEDLRFGVKNGVHMVFASFIRTANDVLTIREVLGEQGKDVKIIVKIENQQGVNNFDEILKVTDGVMVARGDLGIEIPAPEVLAVQKKLIAKSNLAGKPVICATQMLESMTYNPRPTRAEVSDVGNAILDGADCVMLSGETAKGNYPINAVTTMAETAVIAEQAIAYLPNYDDMRNCTPKPTSTTETVAASAVAAVFEQKAKAIIVLSTSGTTPRLVSKYRPNCPIILVTRCPRAARFSHLYRGVFPFVFEKEPVSDWTDDVEARINFGIEKAKEFGILKKGDTYVSIQGFKAGAGHSNTLQVSTV
binding result: binds
